Experimental data as given in the supplement of paper PMC9112550, “Optimization of the antimicrobial peptide Bac7 by deep mutational scanning” (BMC Biology, 2022).

Each sequence was assayed on Escherichia coli TOP10 (assay: shrunken log2 fold change of peptide-encoding DNA abundance (4.5 h post-induction vs induction); higher = less antimicrobial activity (less host growth inhibition)). Conditions: time post-induction: 4.5 h; library: site-saturation at positions 5, 18, 19, 20.
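Also: peptides expressed intracellularly from a pBAD plasmid library in pooled LB shake-flask culture, induced with 0.3% L-arabinose, DNA abundance read by NGS, three biological replicates, DESeq2 with apeglm shrinkage.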

Sequence	shrunken log2 fold change
RRIRQRPPRLPRPRPRPYDIPRP	0.0432
RRIRQRPPRLPRPRPRPYERPRP	0.074
RRIRQRPPRLPRPRPRPYGYPRP	-0.354
RRIRQRPPRLPRPRPRPYHAPRP	-0.052
RRIRQRPPRLPRPRPRPYHVPRP	-0.00172
RRIRQRPPRLPRPRPRPYLAPRP	-0.21
RRIRQRPPRLPRPRPRPYLRPRP	-0.176
RRIRQRPPRLPRPRPRPYPHPRP	-0.0795
RRIRQRPPRLPRPRPRPYPQPRP	-0.00227
RRIRQRPPRLPRPRPRPYRCPRP	-0.122
RRIRQRPPRLPRPRPRPYRHPRP	-0.268
RRIRQRPPRLPRPRPRPYSKPRP	-0.119
RRIRQRPPRLPRPRPRPYSRPRP	-0.0567
RRIRQRPPRLPRPRPRPYTEPRP	-0.00136
RRIRQRPPRLPRPRPRPYVKPRP	-0.365
RRIRQRPPRLPRPRPRPYVPPRP	-0.157
RRIRQRPPRLPRPRPRPYVSPRP	-0.0823
RRIRQRPPRLPRPRPRPYVYPRP	0.00646
RRIRQRPPRLPRPRPRPYWLPRP	-0.307
RRIRQRPPRLPRPRPRPYWQPRP	-0.411
RRIRQRPPRLPRPRPRPYYWPRP	0.0316
RRIRRRPPRLPRPRPRPAAAPRP	0.941
RRIRRRPPRLPRPRPRPAADPRP	0.594
RRIRRRPPRLPRPRPRPACHPRP	0.306
RRIRRRPPRLPRPRPRPAEEPRP	0.618

Sequence	shrunken log2 fold change
RRIRRRPPRLPRPRPRPAFAPRP	0.456
RRIRRRPPRLPRPRPRPAFVPRP	0.36
RRIRRRPPRLPRPRPRPAFWPRP	0.547
RRIRRRPPRLPRPRPRPAHPPRP	0.769
RRIRRRPPRLPRPRPRPAHYPRP	0.445
RRIRRRPPRLPRPRPRPAKYPRP	0.0401
RRIRRRPPRLPRPRPRPALMPRP	0.195
RRIRRRPPRLPRPRPRPALQPRP	1.92
RRIRRRPPRLPRPRPRPAMHPRP	0.422
RRIRRRPPRLPRPRPRPAMKPRP	0.373
RRIRRRPPRLPRPRPRPANIPRP	0.256
RRIRRRPPRLPRPRPRPAPIPRP	0.92
RRIRRRPPRLPRPRPRPARCPRP	0.42
RRIRRRPPRLPRPRPRPASNPRP	0.472
RRIRRRPPRLPRPRPRPAYHPRP	0.0468
RRIRRRPPRLPRPRPRPCCMPRP	-0.18
RRIRRRPPRLPRPRPRPCETPRP	0.0583
RRIRRRPPRLPRPRPRPCFHPRP	-0.00606
RRIRRRPPRLPRPRPRPCHCPRP	-0.0688
RRIRRRPPRLPRPRPRPCKTPRP	-0.103
RRIRRRPPRLPRPRPRPCKYPRP	-0.915
RRIRRRPPRLPRPRPRPCLIPRP	-0.38
RRIRRRPPRLPRPRPRPCNHPRP	-0.011
RRIRRRPPRLPRPRPRPCNKPRP	-0.137
RRIRRRPPRLPRPRPRPCNLPRP	-0.0686

Sequence	shrunken log2 fold change
RRIRRRPPRLPRPRPRPCNQPRP	-0.0711
RRIRRRPPRLPRPRPRPCNSPRP	0.00408
RRIRRRPPRLPRPRPRPCPCPRP	-0.176
RRIRRRPPRLPRPRPRPCQFPRP	-0.0684
RRIRRRPPRLPRPRPRPCSGPRP	-0.0988
RRIRRRPPRLPRPRPRPCTCPRP	-0.111
RRIRRRPPRLPRPRPRPCTDPRP	-0.115
RRIRRRPPRLPRPRPRPCTHPRP	0.176
RRIRRRPPRLPRPRPRPCTPPRP	-0.0236
RRIRRRPPRLPRPRPRPCTYPRP	-0.27
RRIRRRPPRLPRPRPRPCVDPRP	0.163
RRIRRRPPRLPRPRPRPCVGPRP	-0.147
RRIRRRPPRLPRPRPRPCVKPRP	0.252
RRIRRRPPRLPRPRPRPCWRPRP	0.00446
RRIRRRPPRLPRPRPRPDAFPRP	0.737
RRIRRRPPRLPRPRPRPDCDPRP	0.222
RRIRRRPPRLPRPRPRPDCFPRP	0.681
RRIRRRPPRLPRPRPRPDDHPRP	-0.276
RRIRRRPPRLPRPRPRPDDWPRP	0.359
RRIRRRPPRLPRPRPRPDEFPRP	0.138
RRIRRRPPRLPRPRPRPDELPRP	0.614
RRIRRRPPRLPRPRPRPDFKPRP	0.151
RRIRRRPPRLPRPRPRPDKMPRP	-0.122
RRIRRRPPRLPRPRPRPDMDPRP	-0.108
RRIRRRPPRLPRPRPRPDPWPRP	0.335
